Experimental data reported in US20260092096A1 (35PHARMA, published 2026).

T1: BMP-9 (UniProt Q9UK05 320-429)
T1 sequence (looked up): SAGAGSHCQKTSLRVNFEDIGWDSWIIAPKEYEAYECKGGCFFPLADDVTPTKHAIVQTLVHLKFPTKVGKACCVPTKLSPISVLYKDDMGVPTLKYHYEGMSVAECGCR

T2: BMP-10 (UniProt O95393 317-424)
T2 sequence (looked up): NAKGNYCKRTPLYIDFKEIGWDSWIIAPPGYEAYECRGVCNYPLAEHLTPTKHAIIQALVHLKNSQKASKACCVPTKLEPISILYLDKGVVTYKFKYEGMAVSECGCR

T3: GDF-11 (UniProt O95390 299-407)
T3 sequence (looked up): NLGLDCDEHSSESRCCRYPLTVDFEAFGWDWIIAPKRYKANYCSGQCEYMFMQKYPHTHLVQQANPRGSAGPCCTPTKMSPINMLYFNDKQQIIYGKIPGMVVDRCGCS

T4: activin A (human, UniProt P08476 311-426)
T4 sequence (looked up): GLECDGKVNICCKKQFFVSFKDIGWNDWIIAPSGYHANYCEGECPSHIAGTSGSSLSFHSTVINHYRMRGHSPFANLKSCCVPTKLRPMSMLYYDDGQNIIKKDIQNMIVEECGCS

T5: activin B (UniProt P09529 293-407)
T5 sequence (looked up): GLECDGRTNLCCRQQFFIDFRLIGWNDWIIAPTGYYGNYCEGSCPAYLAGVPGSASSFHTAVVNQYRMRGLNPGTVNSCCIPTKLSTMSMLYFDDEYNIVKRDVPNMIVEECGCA

T6: GDF-8 (UniProt O14793 267-375)
T6 sequence (looked up): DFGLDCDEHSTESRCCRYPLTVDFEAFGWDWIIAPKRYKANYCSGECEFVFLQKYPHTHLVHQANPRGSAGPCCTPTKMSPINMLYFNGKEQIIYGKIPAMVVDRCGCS


Key:
Assay in all cases: cell-based or functional assay
BMP-9 = molecular target: T1, BMP-9
BMP-10 = molecular target: T2, BMP-10
GDF-11 = molecular target: T3, GDF-11
activin A = molecular target: T4, activin A
activin B = molecular target: T5, activin B
GDF-8 = molecular target: T6, GDF-8

Molecule | IC50, BMP-reporter HepG2 cell-based neutralization assay (BMP-9) | IC50, BMP-reporter HepG2 cell-based neutralization assay (BMP-10) | IC50, TGFβ-reporter HEK293 cell-based neutralization assay (GDF-11) | IC50, TGFβ-reporter HEK293 cell-based neutralization assay (activin A) | IC50, TGFβ-reporter HEK293 cell-based neutralization assay (activin B) | fold increase in neutralization potency relative to P75 (activin A) | IC50, TGFβ-reporter HEK293 cell-based neutralization assay (GDF-8) | fold increase in neutralization potency relative to P75 (BMP-9)
P754 (hActRIIB T69Q, 14 aa linker, IgG1-DL) (Fc fusion) | 3.5 nM | 2.5 nM | 1.6 nM | 1.5 nM | 2.1 nM | – | – | –
P1372 (hActRIIB L33W, 14 aa linker, IgG1 YTE-DL) (Fc fusion) ETRECIYYNANWELERTNQSGLERCEGEQDKRWHCYASWRNSSGTIELVKKGCWLDDFNCYDRQECVATEENPQVYFCCCEGNFCNERFTHLPEAGGPEVTYEPPPTGGGGSGGGGSGGGGTHTCPPCPAPELLGGPSVFLFPPKPKDTLYITREPEVTCVVVDVSHEDPEVKFNWYVDGVEVHNAKTKPREEQYNSTYRVVSVLTVLHQDWLNGKEYKCKVSNKALPAPIEKTISKAKGQPREPQVYTLPPSRDELTKNQVSLTCLVKGFYPSDIAVEWESNGQPENNYKTTPPVLDSDGSFFLYSKLTVDKSRWQQGNVFSCSVMHEALHNHYTQKSLSLSPG | > 1000 nM | > 100 nM | 0.53 nM | 0.56 nM | 2 nM | – | 0.18 nM | –

Results, then the molecule that gave them:

IC50, BMP-reporter HepG2 cell-based neutralization assay (BMP-9) | IC50, BMP-reporter HepG2 cell-based neutralization assay (BMP-10) | IC50, TGFβ-reporter HEK293 cell-based neutralization assay (GDF-11) | IC50, TGFβ-reporter HEK293 cell-based neutralization assay (activin A) | IC50, TGFβ-reporter HEK293 cell-based neutralization assay (activin B) | fold increase in neutralization potency relative to P75 (activin A) | IC50, TGFβ-reporter HEK293 cell-based neutralization assay (GDF-8) | fold increase in neutralization potency relative to P75 (BMP-9) | Molecule
2.1 nM | 2.9 nM | 1.5 nM | 1.6 nM | 2.4 nM | 1.5 fold | 1.4 nM | – | P753 (hActRIIB T69H, 14 aa linker, IgG1-DL) (Fc fusion)
1.1 nM | 4 nM | 2.1 nM | 3.5 nM | 6 nM | – | 2 nM | 2 fold | P739 (hActRIIB G27E, 14 aa linker, IgG1-DL) (Fc fusion)
> 1000 nM | > 100 nM | 0.39 nM | 0.53 nM | 2 nM | – | 0.33 nM | – | P1375 (hActRIIB L33W, 19 aa linker, IgG1 YTE-DL) (Fc fusion) ETRECIYYNANWELERTNQSGLERCEGEQDKRWHCYASWRNSSGTIELVKKGCWLDDFNCYDRQECVATEENPQVYFCCCEGNFCNERFTHLPEAGGPEVTYEPPPTGGGGSGGGGSGGGGSGGGGTHTCPPCPAPELLGGPSVFLFPPKPKDTLYITREPEVTCVVVDVSHEDPEVKFNWYVDGVEVHNAKTKPREEQYNSTYRVVSVLTVLHQDWLNGKEYKCKVSNKALPAPIEKTISKAKGQPREPQVYTLPPSRDELTKNQVSLTCLVKGFYPSDIAVEWESNGQPENNYKTTPPVLDSDGSFFLYSKLTVDKSRWQQGNVFSCSVMHEALHNHYTQKSLSLSPG
